Test results reported in the DeepSol protein solubility set.

Test: soluble on expression in E. coli; label from the status in PepcDB or PDB records

Sequence | soluble on expression in E. coli
TRNVTWNIGFNATHYRNKISRLAESKKTDIIDGHAGYVNGLYYYGEGLPMYTNYVQKYAGVSEEGKPQWYYTDKQTGEMKTTTTYSQADLYLCGDAVPDLYGGINTSLSFYGFDFSTQINYSIGGQAYDYGYQALMSPPTSTHLGYNVHKDIYKAWSPENTQSDIPQWQFNDLYSVKTSDRFLTNASSISIQNIQLGYTFSKKTLRSLYLTNLRIYVACDNVYYWSKRKGFDSRVTWNGNKDSSGEYSAVRAFSAGLSLQF | not soluble
MGSDKIHHHHHHMNKVLNKESAPAYRLTPEWELYTSVVTTSLNNSFYEQEEERIERVRTLIGKCNPLFVAQLAAYARETMNLRSIPLVMAVELARIHQGDNLVKRVTARTVRRADEITELLACYQQANRRTGTKKLNRLSKQLQAGLQDAFNTFDAYQFAKYNRSAEVCLKDALFLVHPKAKDERQQEIFNGIVNDNLPVPYTWETELSALGQRTFATEEERRKAFRAKWEELIDSGKLGYMALLRNLRNILEAEVSADHILTVGKRLSSEKAVENSRQLPFRFLAAYRELSKTPSLYATMLMTALERAVQVSARNITGFDESTRVLIACDVSGSMQCPVSAKSKVLYYDIGLLLGMLLKSRCKQVMTGIFGDRWKIINLPDTGILSNVDAFYKREGEVGYSTNGYLVIKDLIDRKAQMDKIMMFTDCQLWNSHSDLQITDLWRKYKKICPAAKLYLFDLSGYGNTPLDITRDDVFLIAGWSDKIFDILSAIDKGNDALQEIKKIVV | not soluble
MMYQDVVRSRRSVRDFMPDVEIPKEELMAIIEEAMFAPNSTNLNSWRFLIVTEKEQKEALYEVSMQQPAVKGAAAVIILLGDLTAYTVANADEISAKAVAQGTMTEEIRQGINENVSWYYDVSEEQKREWLMLDQGLVAMQLMLSAKDRGYDTVAMSGFETEAVRKLFNIEDHLVNGLIIPIGKAQTPGFETVRRDVSEVVTWLD | not soluble
MCMHLSSPALPIGGFSYSQGLEAAIELGLVHDEASTLAWIESQLVTVMARAEAPLWLLFEAWRAGDDAAAHGWNQWFHASRETRELRQETEQMGRSLARLAQELGWGTAATRAAVAALRPATLPAVHACACAMWALPREAGLGAYVFSWLENQVAAAIKGVPLGQMAGQRMLERLRAGLPAVLADARARAGATPPRLDTFAPQYALVSARHETQFSRLFRSAAALEHHHHHH | not soluble
MAHHHHHHMERSLYYTPQLLWLQVMDRMPYEFTHYFVSSPPPHHEAMLSGIREQYGRPYSAAKPFDVELLGRLWNGHSRVMFATDNLVFSAVDHSVSDRWKEMGFQGTDPSTDFRGAGIFGLAQLVYLVEHHPEEWSAILTPDFMAAAAGLNVTMRLATMLGINSSLNQLSSSVLSKYSAREARLQLCRFIFDPSVDVATQRLSEVYCFAMRLLHYRWMRSTRNIMEFNQQLSSMYTELDRLLFLCNTLEELCSLL | not soluble
GSHSLRYFYTAVSRPGLGEPRFIAVGYVDDTEFVRFDSDAENPRMEPRARWMEREGPEYWEQQTRIAKEWEQIYRVDLRTLRGYYNQSEGGSHTIQEMYGCDVGSDGSLLRGYRQDAYDGRDYIALNEDLKTWTAADFAAQITRNKWERARYAERLRAYLEGTCVEWLSRYLELGKETLLRSDPPEAHVTLHPRPEGDVTLRCWALGFYPADITLTWQLNGEDLTQDMELVETRPAGDGTFQKWASVVVPLGKEQNYTCRVEHEGLPKPLSQRWEPLLEHHHHHH | soluble
MSELTSNRIRTTAAKLGLPHLAEALNQYVQRADEAKMGYLDFLDLVLAEELAVRDDRRFRNGLRLSKLPHHKTLEDYDFSFQPDLDPRKVKDLATLSFIEDKANVALLGPPGVGKTHIAVALAVAACRAGYSIYFTSLDDMVRHLKAAEDQGRLISKLTSYLRPAVLVVDEVGYQPLERAEANLVFQVISKRYEKGSIILTSNKTFGEWGQVFGDEVLATAILDRLLHHCEVVSINGNSYRLKNRLQAIERDTDVALEHHHHHH | soluble
